The target of this test is HA-Cep57 (centrosomal protein of 57 kDa, full length), Q86XR8-1. Nature of the test: co-IP (FLAG IP, HA-Cep57 western blot band quantification). Conditions: HEK293T cells; three independent experiments; parent: est. 1.0; read off a plot. In general terms: A western blot detects proteins with antibodies after separation by electrophoresis.

These results are taken from publication PMC6389942.

HA-Cep57 (centrosomal protein of 57 kDa, full length), Q86XR8-1, sequence (Q86XR8 whole entry): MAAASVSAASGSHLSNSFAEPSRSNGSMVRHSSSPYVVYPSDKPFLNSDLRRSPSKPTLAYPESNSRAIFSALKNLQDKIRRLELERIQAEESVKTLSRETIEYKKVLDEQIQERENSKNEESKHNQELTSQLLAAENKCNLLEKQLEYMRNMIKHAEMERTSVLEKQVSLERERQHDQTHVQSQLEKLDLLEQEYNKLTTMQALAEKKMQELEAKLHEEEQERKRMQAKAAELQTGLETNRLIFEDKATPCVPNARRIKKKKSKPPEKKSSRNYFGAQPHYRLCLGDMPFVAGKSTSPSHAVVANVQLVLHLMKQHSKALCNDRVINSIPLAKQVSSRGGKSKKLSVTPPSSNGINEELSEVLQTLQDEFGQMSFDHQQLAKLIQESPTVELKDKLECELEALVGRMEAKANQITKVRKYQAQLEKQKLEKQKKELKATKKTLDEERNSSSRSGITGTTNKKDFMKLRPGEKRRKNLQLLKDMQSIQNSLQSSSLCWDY

FLAG-PCNT 2536–3336 WT K3154del: the response is 0.11.
